In PMC2756985 (Biochemistry, 2009):

Experiment: Oxygen dissociation rates of DevS proteins, stopped flow
Type: binding, Mycobacterium tuberculosis

B1: full-length Y171F DevS (protein, UniProt P9WGK3 1-578, looked up, variant Y171F)
chain: MTTGGLVDENDGAAMRPLRHTLSQLRLHELLVEVQDRVEQIVEGRDRLDGLVEAMLVVTAGLDLEATLRAIVHSATSLVDARYGAMEVHDRQHRVLHFVYEGIDEETVRRIGHLPKGLGVIGLLIEDPKPLRLDDVSAHPASIGFPPYHPPMRTFLGVPVRVRDESFGTLFLTDKTNGQPFSDDDEVLVQALAAAAGIAVANARLYQQAKARQSWIEATRDIATELLSGTEPATVFRLVAAEALKLTAADAALVAVPVDEDMPAADVGELLVIETVGSAVASIVGRTIPVAGAVLREVFVNGIPRRVDRVDLEGLDELADAGPALLLPLRARGTVAGVVVVLSQGGPGAFTDEQLEMMAAFADQAALAWQLATSQRRMRELDVLTDRDRIARDLHDHVIQRLFAIGLALQGAVPHERNPEVQQRLSDVVDDLQDVIQEIRTTIYDLHGASQGITRLRQRIDAAVAQFADSGLRTSVQFVGPLSVVDSALADQAEAVVREAVSNAVRHAKASTLTVRVKVDDDLCIEVTDNGRGLPDEFTGSGLTNLRQRAEQAGGEFTLASVPGASGTVLRWSAPLSQ
modifications: full-length
Question: Which O2 koff does the source give for B1 here?
Answer: Its O2 koff is 3.85 ± 0.69 ^b s^−1.
